This data set has as its target β-amyloid peptide (1-42) (UniProt P05067).

Chain of β-amyloid peptide (1-42) (P05067 whole entry, looked up, tested part not stated): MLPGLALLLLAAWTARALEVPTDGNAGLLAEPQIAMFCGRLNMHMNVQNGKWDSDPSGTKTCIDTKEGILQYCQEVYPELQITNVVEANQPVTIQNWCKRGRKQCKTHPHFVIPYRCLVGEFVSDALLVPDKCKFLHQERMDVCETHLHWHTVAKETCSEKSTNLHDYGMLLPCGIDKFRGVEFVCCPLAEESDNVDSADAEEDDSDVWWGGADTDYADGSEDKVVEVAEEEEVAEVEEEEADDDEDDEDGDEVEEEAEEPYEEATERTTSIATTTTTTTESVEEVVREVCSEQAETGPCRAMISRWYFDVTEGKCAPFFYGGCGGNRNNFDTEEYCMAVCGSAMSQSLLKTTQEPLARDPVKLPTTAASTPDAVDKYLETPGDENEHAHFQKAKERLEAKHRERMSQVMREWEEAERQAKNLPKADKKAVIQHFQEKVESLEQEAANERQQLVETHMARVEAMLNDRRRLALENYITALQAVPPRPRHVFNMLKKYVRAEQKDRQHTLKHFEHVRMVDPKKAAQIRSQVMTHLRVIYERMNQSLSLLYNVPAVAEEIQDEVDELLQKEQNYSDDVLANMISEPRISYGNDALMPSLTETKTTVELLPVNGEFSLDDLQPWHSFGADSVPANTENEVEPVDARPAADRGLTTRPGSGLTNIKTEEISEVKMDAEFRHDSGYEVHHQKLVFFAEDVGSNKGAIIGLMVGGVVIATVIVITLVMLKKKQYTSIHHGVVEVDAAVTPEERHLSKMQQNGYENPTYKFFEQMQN

yeast NEP (yNEP) returned an Abeta HPLC, per hr. (sample yNEP) of 0.46 per hr; an Abeta HPLC, rate (sample yNEP) (million sq unt/min) of 0.0137; an Abeta HPLC, units/µL (sample yNEP) of 0.0274 units/µL; an Abeta HPLC, units/µg (sample yNEP) of 0.008 units/µg.

These data come from patent publication US20210395716.
